B1: unnamed (protein)
chain: MRPTRCPSRATSPLRSRSRVLAVLIVMATTLASTLLTVSVTPAATAARQSQSRSVAGSSSEHASVRATIPDPTTASLEATNGPLAIATYTVPQPSGYGSGTITYPTARGSYPAVVLMPGYQGTQQNLQWVAPRLASWGFIVINVGTKTLGDDPASRGRQISAAGTQLLSLGSVAGNPLYGKMNGTLGAAGHSMGGGGVMAALREDSRFTAGMPLAPYYPNQNFSGVTDPTFFLTCKSDPVAHGNTYALPWYNSMSQAEKLYIEVPGDHLCPMTGYGNKAKQGKWIVSFFSRWLYGDTRFSPFLCGAAREADKNNPSLVTRWQDTCPF
B2: unnamed (protein)
chain: MSLVSHRAATTRACSKPQTEISRSPRNRRGAFIACVSLALVSSFAHADVLLQENFDGTLGQFTSVGSVSVTTSGARMAGSFGGTDGAITSAAISTVGFTALSLSYTRTTTGLDSGEAGILEYSTNGTTYTSLGSTQSASGPVTVGLPAAAENQAGLRLRWRVNASSSSEYYTVDSIQLQGTGGTSCEPNCPPTGNPYQRGPAPTTSTLDATSGSFTVDSVTVSSTAANGYGGGTIYYPVNTTEGPFAAIAVIPGYLSPQSSIQQWGPRLASWGFVVITITTNSGSDQPSSRATQLVAALDQVVSYSNSTTHAIRGKVDPTRLGVAGWSMGGGGSLIALDRNPTKLKAGMMFAPWNSSTNFSGVNQPALIFACESDGTAPVSSHALPFYNSIPSSNDKAFAEVNNGSHSCANDPRNNSGRLGRYGVSWMKRFLDDDTRFTEFLCGAPHSSVISGTTTYSRYLSTCPY
B3: unnamed (protein)
chain: MKLERSVAQATSVARGARRHEKPSSLTSVALAGVSLALFSTFAHADVLLQENFDGNLGQFSSSGSVTVTTSGARMAGSYGGTDGAITSPAISTVGFTGLSLSYTRTTTGLDSGEGGFLEYSTNGTTFTSLGSTQSASGPVTVALPAAVENQAALRLRWRVNASLSSEYYTVDTILLEGTGGTSCEPNCPPTGNPYQRGPAPTVSSLQATTGPFQTASSAVSSSAADGYGGGTIYYPTNTTEGPFAAIAVVPGYLSPQSSIQQWGPRLASWGFVVITIATNSTSDQPSSRATQLVAALDQVVSYSNSTSHAIRGKVDPARLGVAGWSMGGGGTLIALDRNATKLKAGMAFAPWNSSTNFSGVNQPALIFGCESDGTAPVSSHSLPFYNSMPSTNDKAFAEVNNGGHSCANDPRNNSGMIGRYGVSWMKRFLDNDTRFSDFLCGAPHDTAVSGSTFSRYLETCPY
B4: unnamed (protein)
chain: MRTSRTRPLRRLAAALVLALAVVLAACDIRGPDPTEQSLTASSGPFAVGTLAVPSSAGFGGGTIYYPTNTEGPFAVISVTPGFTGTQSSIAGWGPRLASHGFVAITINTTNTFENPDTRSTEQRQALTYVVNQSNTSSSPIYGKVDGNRRGVAGHSMGGGGTLISAQADPTIRAAVPLAPWNSSTNFSNVTVPTLILACQNDSIAPVASHASPMYNSIPATTDKSYLSIAGGDHFCANSPTGGSGNVGKYGVAFFKRFLDGDTRYDPWVCGASKPAAGSAINEVRSTCPF
B5: unnamed (protein)
chain: MPMYKLNHVFFAVALAACSALGCAEGSDGSTVSTGGDGVGGGAGETDLPAGAGGTAGVGGAAGSVDPSDIAGTGGSAGTAGETVAGSSGVPVAGTGGIPVAGSGGTGIVDSGGIGGGGAGGTLENNNFIRGPAPTAQSASQAGPYDVQSTTQGLRDPAEYGTQTLWYPTDAEPPFAAIAIVPGFVSPEGSIANWGPFLASHGIVVLTIGTNTGGDLPEVRSAALLAALDTIKAEHTRQGSPIEGKIDTGKLAVGGWSMGGGGTLLTITAHPELKAGLGICPWYMNAFAFAGNTVPVIMFAGTMDVLAGGMSQGFYDAIPASTPKMLFEIAGADHFYANDPLNVANPFTVQVGLYGLSWLKVFLEGDDRYRQFLLNPPQNASDFRTTVK
B6: unnamed (protein)
chain: MQRQTCTTPVGPFHPQETSPMTLTSTLQRFAGIRPFALALPLAAIGWVAQAQTNPPTSSLLNATAGPLTVSTSSVSSFAARGFGGGTIYYPDATGSYGVVAISPGYTARQSSIAWLGRRLATHGFVVITIDTNSTLDQPPSRATQLMAALGHVVNNANATVRSRVDASKQAVAGHSMGGGGSLIAAQNNPTLKAAYPLTPWSVSKNYGTVRVPTMIIGADGDTIAAVTTHSRAFYNSLSSTVFKAYGELNNASHFTPNSTNTPIGRYAVSWMKRFVDSDTRYSPFLCGAPHDSYATRTVFDRYERNCPY
B7: unnamed (protein)
chain: MDKTRLFSTLSMVTSALLFSISVSAGKPSKGGDEPAPEPAACISDTDITSAALSSTGSSGPFTVSTKDVSRWSASGFGGGTIHYPTGAGDCGPIGGIAVVPGYVSYEASIKWWGPRLASWGFVVITINTNSIYDQPDSRATQLSAALDHIINDSTVGSMVDSSRLGAIGWSMGGGGALKLATDRSEVKAIIPQAPWYSGRYGRMKTPAFMIGCENDFVAPTSNHVDVFYANASGPKMKIEVNNGDHSCANSGYNETLLGKPGIAWMQRYIHGDTRFNQFLCGNENYGSSNSVSAYDFESCP
B8: unnamed (protein)
chain: MKTNRRRRLGRLALAAAALLLSVAAQAQNGSAPPGPDPDPDPNPPESDNPYPRGPDPTAATLEASSGPFAVSSFRPSSTPGFGGGTIYYPTNTNEGPFAAIAVAPGFVGTESTIDWLGPRLASHGFVVITIDTNSLFDFPDSRASQLMAALDIVIAESNGSSPISGLVDPDRTGLMGHSMGGGGSLIAARDNPTIDAVIPLAPWNSSTNFSAIDVPTLIVACENDTVAPVSQHASPMYESIPSSVDKAFLEINGGDHFCANSGNANQDILGKYIVSWMKRFLDQDTRYDPFLCGPNHEADPDISEYRDTCPY
B9: unnamed (protein)
chain: MKTIARWQRRCAVGLGLLLLAAAAQSQTNPFQKGPDPTSTILNATAGPFAVATASVPSSVAGFGGGTVYYPTTAGSYAALALCPGFTATQSSIAWIGRRLATHGFVVITINTNSTFDQPPSRATQLMAALRYLTNSSSTTVRSRIDANRLGVGGHSMGGGGTLMATRDNPSLKVGIPMTPWSSTKSFSTVRVPTIIFGGENDTVAPVSSHSIPFYTSLPSSLDKAYAELNGASHFAPNSTNTPIGRYAVSWAKRFMDNDTRYDTFLCGSAHTAFATPAVFSDYRSTCPY
B10: unnamed (protein)
chain: MHAVTSLGFVRASTAPGGRGWRRLAWALALGCGLGVGTTASYAQATGPNPSSAFLNASAGPLRVATESVSSFVTGFGGGTIYYPSTAGRYGVIAISPGFTATESSVAWLGRRLASHGFVAIVINTNSTLDQPASRATQLMAALRHATTGASSTVRARIDSTRQAVAGHSMGGGGTLIAAEDNPTLKAAIPLTPWNLSTSFNGVRVPTLIVGADGDTVASVAVHARPFYASLPASTFKAYAELNGASHFAPNTTNTPIGRYSVAWAKRFIDGDTRYSPFLCGAEHRAYATAAVFDRYNQNCPY
B11: unnamed (protein)
chain: MTSTTVRFAKRLIGAAALLATASVFAQSLPSDAALQATSGPLKIAQANIATPNGYGSGTVYYPTTGTNMGLVVIAPGFTEGPSFNAFWGEKLASWGFVAVNIGTKTTLDLPGPRATQMWAALQQVAALSKTSGSPFAGKVDANRLAAMGHSMGGGGTLLISQDHPTLKAAIPMAPWNLTQKNFPKITVPQLMFACQNDIIAPVSGHADRFWTSFNTTLPRVFAESKGQDHFCPTNLTSAAEKAAFGRIAIAWYKIYLDGDTQYKQVITNGNSPVFSRYLTGGL
B12: unnamed (protein)
chain: MRKIASALEIAALVLASFAAGCGDDGSSNDNPMGMTTQTANTGTPDTGVSTMVPPASTDAGTSTNVGNTNTGTLDAGMVGSTTGIKPAVDSGAVDTGVALGDASSDSGSVAVGDGGGVISPVTPIMRGDAPTKASATAKGPYKVMSYTSGFPVTLYGGGTIWYPTDAEAPFGAVAICPGFTAAQSSIMNWGPFLASHGIVALTMDTATPLDVVDQRADELMDALASIKSENDRAASPIYKKIDTMRLGVMGWSMGGGGTWLAADMHPELRSAVTFAGHIVTAVNQDVSMVHVPTLMFAGSADNAILGGGMSQGVYDGIPESTPKMVWEIMGAGHDVANDPANTSGAVGRYGLSWEKVYLEGDMRYRQFLLEMPPTASYFKTNVK
B13: unnamed (protein)
chain: MFNIRKVAVAASVLLVSMAASAQYQKGPNPTASALERTGSFSTGSSSVSSLSASGFGGGNLYYPTASGTYGAIALCPGFTATSSSLAWLGPRLASHGFVVLIIDTNSTLDQPDSRGRQLKAATDYLVAQNSRTGSPIRGKVDTSRLAVGGHSMGGGGTLEAIRDNPSYKAGMPLAPWNTTKSFSRITVPTLIIGGSADTVAPDGSHSIPFYTSIPSSTAKIFMELRGGSHFFPQTSDPNVSRFAISWYKRWLDLDTRYSTFLNTRPSTTAVSDFRVSRTF
B14: unnamed (protein)
chain: MKKSILEKIAVGTGALLFSVSAFSFTPSPTPDPDPDPDPTPCQGECDFTRGPNPTSSYLEASRGPYTVRNVSVSRSVSGFGGGTIHYPTNTTGTMGAIAIVPGFLAGESSISWWGPRLASHGFVVITIATNSTFDQPASRETQLGRALDYLVSQSNSSSSPISGKVDSARLGAMGWSMGGGGTLRLASGSRLVAAIPLAPWHSGSNNFNRIQTPTMIIACENDTTAAVRSHASPFYNSIPSSTDKAFLEINNGSHSCANGGGSNGGLLGKYGVSWMKRFMDQDTRYNQFLCGPNHAANSAISEYRETCNY

substrate: BHET; conditions: 120 h

Question: How did the plate clearing turn out when B1 was run?
Answer: not clears the plate

Question: How did the plate clearing turn out when B2 was run?
Answer: clears the plate (z > 3 vs empty vector)

Question: B3 was tested. Which plate clearing did it give?
Answer: clears the plate (z > 3 vs empty vector)

Question: How did the plate clearing turn out when B4 was run?
Answer: not clears the plate

Question: B5 was tested. Which plate clearing did it give?
Answer: not clears the plate

Question: How did the plate clearing turn out when B6 was run?
Answer: not clears the plate

Question: How did the plate clearing turn out when B7 was run?
Answer: not clears the plate

Question: With B8 as the protein, how does the plate clearing read?
Answer: not clears the plate

Question: For B9, which plate clearing is on record?
Answer: not clears the plate

Question: Which plate clearing does the source give for B10 here?
Answer: not clears the plate

Question: Which plate clearing does the source give for B11 here?
Answer: not clears the plate

Question: B12 was tested. Which plate clearing did it give?
Answer: not clears the plate

Question: With B13 as the protein, how does the plate clearing read?
Answer: not clears the plate

Question: For B14, which plate clearing is on record?
Answer: not clears the plate

Reference: the PETadex activity labels
